# Test results taken from article PMC3458555 (Nucleic Acids Research, 2012).
# Read-outs that look alike come from different tables or passages of the source.
# B1: Zfp206SCAN (SCAN domain of Zfp206, tag-free) (domain or fragment)
# chain: GRPRPEVAHQLFRCFQYQEDMGPRASLGRLRELCNHWLRPALHTKKQILELLVLEQFLSVLPPHVLSRLHGAPLRDGEEVAQLEGVPRDISHM
# B2: Zfp110SCAN (SCAN domain of Zfp110) (domain or fragment, mouse, UniProt A0A0R4J249 154-247, looked up)
# chain: RLTDTEASRQKFRHFQYEESAGPQKAMSQLRKLCHQWLQPNTRSKKQILELLVLEQFLNALPEKFRVWVESQHPEDCKAVVALLENMTSVSKDD
# B3: MBP-Zfp206SCAN (domain or fragment)
# chain: B1 chain
# B4: Zfp206SCAN–ZNF174SCAN fusion protein (other)
# chain: RPRPEVAHQLFRCFQYQEDMGPRASLGRLRELCNHWLRPALHTKKQILELLVLEQFLSVLPPHVLSRLHGQPLRDGEEVVQLLEGVPRDISHMRQGFRHFCYQEVSGPQEALSCLQQLCRQWLQPELHTKEQILELLVMEQFLVILPPEIQAQVWHRYPKSSREIVTLVEDLHR
# What was measured:
# [1] = target: Zfp206SCANΔH1–Zfp110SCAN fusion protein (not stated | mouse) (UniProt Q3URR7); experiment: SEC
# [2] = target: Zfp206SCAN–Zfp110SCAN ΔH1 fusion protein (not stated | mouse) (UniProt Q3URR7); experiment: SEC
# SEC [3] = target: the molecule itself; experiment: SEC
# [4] = target: the molecule itself
# SEC [5] = target: the molecule itself; experiment: SEC; remark: listed apart in the source
molecule,measurement,setting,value
Zfp206SCANΔH1–Zfp110SCAN fusion protein (from UniProt Q3URR7 36-128),stoichiometry N,[1],2
Zfp206SCAN–Zfp110SCAN ΔH1 fusion protein (from UniProt Q3URR7 36-128),stoichiometry N,[2],2
B1,stoichiometry N,SEC [3],2
B2,stoichiometry N,SEC [3],2
B3,stoichiometry N,[4],2
B4,stoichiometry N,SEC [5],2
